# Results reported in paper PMC3115021, “Dynamics of Cdk1 Substrate Specificity during the Cell Cycle” (Molecular Cell, 2011).
# B1: PLM2: purified yeast protein tested as Cdk1 substrate (protein, UniProt Q04383 1-521, looked up)
# Protein PLM2: MSHLFPPSSPVAGKPLESPQKEPGKLANTSVLTLGRKRYNYELEEYPTPDPSSSIGRQSSPVKDITSRLNETKSALSSPSKQEKVLAGPIEIELDASDPSRLAIGRKKSVCNIILPCRKNISRQHAFISYAADRNEIKLECNGTNGLSVHLPYSMQLHLVKPFPTRNFYKLVAEEPLTSQNTKQSHGKTLQKNQNFISFVLAKGETVTFPYIQGSFINFTGVTVCLSLKKVAPYPGDGNNNFDEENSTETEDELCLLTTTSDDFSWQKETPSMKFVPVEHSPRTEQISKPLLIASPALVKNSPISYRTTPQTSFVINQPSTPKKLKRKSISLKNNTIQETPLPKDKIIGTLSASTRSGGINEEESFAAVAKKTKELSSTTAIVSPAQKRLKTSLNIIPEISRSLSERGIRFDDLVHVLCNHLAFSNLQQTPLSQLQNINSNTSQLSKDELKKVLETISCIGIIVREGKDASGKPLEDEYYYDVENDDSDERKILYNSLKGRSRLRSCRKKHKQYFWKRPTK
# B2: PDS1: GST-tagged purified yeast protein tested as Cdk1 substrate (protein, UniProt P40316 1-373, looked up)
# Securin: MMPANEDKENNIVYTGNESSGINFPQTPAHLLKRSHSNILKPPVRLDQLKRDANSNNGNTLKYIQGGKEVSPTKRLHTHAQQQGRLPLAAKDNNRSKSFIFPETSNQSKDADLPQLQNTLSIRKNDQLRKLSQISRSRSRANHNDLLSNSRKLQKYGSVLGYNALPKMKSLVLKDLADSGKNEESSDDDEGNEDSESKLGKKLQSALLKQDSSDGENELNGGLGLFNEQGGLQQLIKNSTKNEQKTKNDKSDKTDDYDIEIAPQRQEPLPYVPEGYSPFQQDDIEKLKTFNSPYKLDLEDEDDTPDKVDLLPLEQIDEEGEKDETECITRNQEEGAALPLLSKNFKEVAAVPTMELVYSEEGLDPEELEDLVT
# modifications: GST tag
# notes: GST-tagged purified yeast protein tested as Cdk1 substrate
# B3: PXL1: purified yeast protein tested as Cdk1 substrate (protein, UniProt P36166 1-706, looked up)
# Paxillin-like protein 1: MYNSIYGSPFPKINPKVRYKTALERAGFDTKPRNPFSSQRNASTGSLQASVKSPPITRQRNVSAAPSVPVTMKSAYTASSKSAYSSVKGESDIYPPPVLENSERRSVTPPKNSNFTSSRPSDISRSISRPSERASQEDPFRFERDLDRQAEQYAASRHTCKSPANKEFQAADNFPFNFEQEDAGNTEREQDLSPIERSFMMLTQNDTASVVNSMNQTDNRGVLDQKLGKEQQKEESSIEYESEGQQEDENDIESLNFEPDPKLQMNLENEPLQDDFPEAKQEEKNTEPKIPEINVTRESNTPSLTMNALDSKIYPDDNFSGLESSKEQKSPGVSSSSTKVEDLSLDGLNEKRLSITSSENVETPYTATNLQVEQLIAQLDDVSLSRNAKLDMNGNCLNAVDRKASRFKKSSAYLSGYPSMDIPVTQQTSIVQNSNTNLSRQTILVDKGDVDEDAPSESTTNGGTPIFYKFKQSNVEYSNNEGMGSQETFRTKLPTIEALQLQHKRNITDLREEIDNSKSNDSHVLPNGGTTRYSSDADYKETEPIEFKYPPGEGPCRACGLEVTGKRMFSKKENELSGQWHRECFKCIECGIKFNKHVPCYILGDEPYCQKHYHEENHSICKVCSNFIEGECLENDKVERFHVDCLNCFLCKTAITNDYYIFNGEIPLCGNHDMEALLKEGIDNATSSNDKNNTLSKRRTRLINFN
# B4: SLI15: purified yeast protein tested as Cdk1 substrate (protein, UniProt P38283 1-698, looked up)
# Inner centromere protein SLI15: MDWAIKAARKKTQRKPGSTRSIIETLDDLNNLTTDAHSEINQRLYESSEWLRNNVYMNTLKYEDKKMEESLISPENTHNKMDVEFPKMKGEYELSNSQNDAAKDVTKTPRNGLHNDKSITPKSLRRKEVTEGMNRFSIHDTNKSPVEPLNSVKVDANESEKSSPWSPYKVEKVLRESSKTSESPINTKRFDNQTWAAKEEMENEPILQALKKAESVKVKPPPNSGIARSQRRSNMFVPLPNKDPLIIQHIPPTKSSGSIPKVRTVKESPIAFKKKSTINSPAIRAVENSDTAGSTKASSVFDRLSSIPTKSFENKISRGNVGHKYSSSSIDLTGSPMKKVSQKFKSINSTDTDMQEALRDIFSVKNKITKNNSPKGKNSRKSSIPRFDKTSLKLTTHKKLAIIAEQKKKSKHSSDVHKTGSRPHSISPTKISVDSSSPSKEVKNYYQSPVRGYLRPTKASISPNKNKNLTTSQTPHRLKIKEKTLRKLSPNIADISKPESRKSKNYRLTNLQLLPPAEAERDDLKKKFDKRLSGIMRSQQEHHRRKQEKQKRMSHLEQDLKKQTSFSNDYKDIRLKESLAPFDNHVRDTINKNTAFSTDNILATINTVDHREIIGNVTPKIASVNDSLPEINTDSEDEASVTLAAWAKSPYLQEQLIRQQDINPQTIFGPIPPLHTDEIFPNPRLNRLKPRQIVPKRS
# What was measured:
# Assay in all cases: Quantitative phosphorylation assay of T33-Sic1ΔC constructs and recombinant substrates
# Type in all cases: biochemical
# Conditions in all cases: Table S2; purified protein substrate; relative values, not divided by [S]
# Cln2-Cdk1 = target: T1, Cln2-Cdk1 (Saccharomyces cerevisiae, UniProt P00546+P20438)
# T1 construct: We purified the four cyclin-Cdk1 complexes from yeast; made in house; host or cells: S. cerevisiae strain DMY305 (galactose-induced); Cks1 from bacteria
# T1 sequence (P00546 2-298 limits assumed): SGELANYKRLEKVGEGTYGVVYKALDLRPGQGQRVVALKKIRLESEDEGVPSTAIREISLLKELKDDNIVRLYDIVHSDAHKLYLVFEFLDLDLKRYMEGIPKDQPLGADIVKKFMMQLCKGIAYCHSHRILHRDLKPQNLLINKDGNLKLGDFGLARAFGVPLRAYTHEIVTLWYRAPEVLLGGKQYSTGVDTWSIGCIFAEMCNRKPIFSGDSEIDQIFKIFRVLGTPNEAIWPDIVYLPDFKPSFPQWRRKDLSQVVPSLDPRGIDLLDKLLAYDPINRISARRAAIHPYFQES
# T1 sequence (P20438 whole entry partner): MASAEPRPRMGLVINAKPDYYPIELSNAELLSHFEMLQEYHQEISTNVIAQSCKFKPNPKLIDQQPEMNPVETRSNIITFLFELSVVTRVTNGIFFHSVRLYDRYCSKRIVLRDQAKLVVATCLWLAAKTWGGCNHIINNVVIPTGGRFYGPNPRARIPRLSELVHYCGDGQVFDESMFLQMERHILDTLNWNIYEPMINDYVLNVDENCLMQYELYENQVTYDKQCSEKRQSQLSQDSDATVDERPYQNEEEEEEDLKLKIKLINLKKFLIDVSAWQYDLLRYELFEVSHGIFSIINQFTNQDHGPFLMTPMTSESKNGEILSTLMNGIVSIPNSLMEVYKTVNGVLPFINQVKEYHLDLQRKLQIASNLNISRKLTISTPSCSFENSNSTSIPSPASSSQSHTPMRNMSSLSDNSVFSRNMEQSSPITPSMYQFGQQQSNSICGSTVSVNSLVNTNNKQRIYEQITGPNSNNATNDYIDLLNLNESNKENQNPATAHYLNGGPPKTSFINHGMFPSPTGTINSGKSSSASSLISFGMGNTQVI
# T1 sequence (P20486 whole entry partner): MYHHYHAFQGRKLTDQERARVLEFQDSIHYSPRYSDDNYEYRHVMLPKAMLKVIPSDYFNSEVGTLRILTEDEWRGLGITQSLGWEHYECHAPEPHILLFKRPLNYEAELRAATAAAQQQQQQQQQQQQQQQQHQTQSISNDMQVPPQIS
# Clb5-Cdk1 = target: T2, Clb5-Cdk1 (Saccharomyces cerevisiae, UniProt P00546+P30283)
# T2 construct: We purified the four cyclin-Cdk1 complexes from yeast; made in house; host or cells: S. cerevisiae strain DOM0076 (gal-CLB5-TAP, sic1 deleted); Cks1 from bacteria
# T2 sequence (P00546 2-298 limits assumed): as the sequence (P00546 2-298 limits assumed) above
# T2 sequence (P30283 whole entry partner): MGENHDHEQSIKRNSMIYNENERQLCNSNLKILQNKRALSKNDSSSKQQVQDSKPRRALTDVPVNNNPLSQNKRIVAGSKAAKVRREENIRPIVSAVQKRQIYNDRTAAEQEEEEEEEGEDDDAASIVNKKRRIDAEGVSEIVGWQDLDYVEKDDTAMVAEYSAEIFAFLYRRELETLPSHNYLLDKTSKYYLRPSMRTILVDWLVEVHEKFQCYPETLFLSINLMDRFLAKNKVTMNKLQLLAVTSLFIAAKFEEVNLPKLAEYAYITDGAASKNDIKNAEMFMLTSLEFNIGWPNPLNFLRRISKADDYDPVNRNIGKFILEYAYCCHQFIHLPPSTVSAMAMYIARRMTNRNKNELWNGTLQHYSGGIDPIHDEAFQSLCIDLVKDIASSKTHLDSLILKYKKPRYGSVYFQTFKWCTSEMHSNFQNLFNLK
# T2 sequence (P20486 whole entry partner): as the sequence (P20486 whole entry partner) above
# Clb3-Cdk1 = target: T3, Clb3-Cdk1 (Saccharomyces cerevisiae, UniProt P00546+P24870)
# T3 construct: We purified the four cyclin-Cdk1 complexes from yeast; made in house; host or cells: S. cerevisiae strain DOM0957 (gal-CLB3-TAP, sic1 deleted); Cks1 from bacteria
# T3 sequence (P00546 2-298 limits assumed): as the sequence (P00546 2-298 limits assumed) above
# T3 sequence (P24870 whole entry partner): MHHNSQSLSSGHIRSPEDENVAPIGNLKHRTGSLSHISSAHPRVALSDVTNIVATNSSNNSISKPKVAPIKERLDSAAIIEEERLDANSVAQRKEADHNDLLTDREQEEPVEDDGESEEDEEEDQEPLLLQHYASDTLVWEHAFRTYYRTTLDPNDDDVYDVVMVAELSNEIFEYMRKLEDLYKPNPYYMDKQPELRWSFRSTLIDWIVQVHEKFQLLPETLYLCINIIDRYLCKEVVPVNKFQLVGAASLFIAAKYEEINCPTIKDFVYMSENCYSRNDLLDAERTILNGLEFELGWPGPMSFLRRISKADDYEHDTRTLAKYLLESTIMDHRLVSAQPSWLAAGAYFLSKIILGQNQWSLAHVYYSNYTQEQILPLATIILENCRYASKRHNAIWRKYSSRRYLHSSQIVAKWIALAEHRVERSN
# T3 sequence (P20486 whole entry partner): as the sequence (P20486 whole entry partner) above
# Clb2-Cdk1 = target: T4, Clb2-Cdk1 (Saccharomyces cerevisiae, UniProt P00546+P24869)
# T4 construct: We purified the four cyclin-Cdk1 complexes from yeast; made in house; host or cells: S. cerevisiae strain DOM0077 (gal-CLB2-TAP, sic1 deleted); Cks1 from bacteria
# T4 sequence (P00546 2-298 limits assumed): as the sequence (P00546 2-298 limits assumed) above
# T4 sequence (P24869 2-491 partner limits assumed): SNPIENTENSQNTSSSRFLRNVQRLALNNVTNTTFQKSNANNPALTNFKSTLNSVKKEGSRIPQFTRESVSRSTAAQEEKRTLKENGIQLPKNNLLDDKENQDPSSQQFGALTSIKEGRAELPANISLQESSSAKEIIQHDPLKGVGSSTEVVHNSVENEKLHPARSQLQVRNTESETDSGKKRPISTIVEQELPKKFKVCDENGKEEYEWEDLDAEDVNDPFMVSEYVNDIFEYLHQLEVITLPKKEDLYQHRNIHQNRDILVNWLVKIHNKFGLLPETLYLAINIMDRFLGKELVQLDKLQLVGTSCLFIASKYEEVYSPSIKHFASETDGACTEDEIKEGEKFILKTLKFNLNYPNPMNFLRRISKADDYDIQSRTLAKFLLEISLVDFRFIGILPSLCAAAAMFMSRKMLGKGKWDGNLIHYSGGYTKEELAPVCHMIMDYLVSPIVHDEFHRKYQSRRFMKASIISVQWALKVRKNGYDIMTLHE
# T4 sequence (P20486 whole entry partner): as the sequence (P20486 whole entry partner) above
# Clb3hpm-Cdk1 = target: T5, Clb3hpm-Cdk1 (Saccharomyces cerevisiae, UniProt P00546+P24870)
# T5 construct: made in house; host or cells: S. cerevisiae strain MK0168 (gal-CLB3hpm-TAP, sic1 deleted); Cks1 from bacteria
# Procedure: (§1) For the quantitative phosphorylation assays of T33-Sic1ΔC constructs and recombinant substrates, substrate concentrations were kept in the range of 0.5–2 μM (in the linear [S] versus v0 range, several-fold below the estimated KM value), and initial velocity conditions were defined as an initial substrate turnover of up to 10% of the total turnover. For the steady-state peptide kinetics of the Histone peptide PKTPKKAKKL, a similar assay composition was used as for protein substrates, and phosphocellulose paper was used for the quantification of the phosphorylated substrate.
# (§2) Supplemental Experimental Procedures
# (§3) Plasmid constructs and yeast strains
# (§4) For tandem affinity purification (TAP) of cyclin-Cdk1 complexes, the cyclin genes were cloned into the 2 micron vector pRSAB1234 containing a GAL1 promoter and the C-terminal TAP-tag. To purify different 6His-T33-Sic1ΔC forms for kinase assays, the C-terminally truncated fragment of Sic1 (with a stop codon inserted after amino acid 215) was cloned into the NheI/BamHI site of the bacterial expression vector pET28a (Invitrogen). Mutagenesis of cyclins or substrates was performed using single-stranded pRSAB1234 or pET28a vector constructs as templates. The triple mutants in the hydrophobic patch (hpm) of Clb5 and Clb2 were described previously (Loog and Morgan, 2005), and the hpm of Clb3 (Phe-201, Leu-205 and Trp-208 mutated to alanines) was designed according to sequence homology with other B-type cyclins. In T33-Sic1ΔC constructs, the other Cdk sites bearing the consensus motif S/T-P were mutated to Ala-Ala in order to prevent any possible (pseudo)substrate competition. The other Cdk substrates were cloned as full-length forms into bacterial expression vectors pET28a or pGEX-4T-1. Cdh1 was purified using the baculovirus system and was a kind gift from Monica Rodrigo-Brenni (UCSF). […]
# The […]
# (§5) pRSAB1234 analogously to the cyclin-Cdk1 complexes. For C-terminal tagging of cyclin genes in their chromosomal loci, the Pringle method was applied (Longtine et al., 1998). Lists of plasmid […]
# (§6) The TAP method was applied for purification of cyclin-Cdk1 complexes and Swe1 as described previously for Clb5-TAP-Cdk1 and Clb2-TAP-Cdk1 (Puig et al., 2001; Ubersax et al., 2003). […]
# (§7) tagged recombinant T33-Sic1ΔC constructs and substrates were cloned into the pET28a vector and purified by standard cobalt affinity chromatography and elution with 200 mM imidazole. 6His-Fin1 was purified as described previously (Woodbury and Morgan, 2007). Substrates cloned into the pGEX-4T-1 were purified on glutathione agarose columns using 5 mM reduced glutathione for elution. Cks1 was purified as described previously (Reynard et al., 2000). The optimal working concentration for purified Cks1 was taken as 500 nM based on optimization performed for cyclin-Cdk1 preparations and T33-Sic1ΔC as a substrate.
# (§8) For the quantitative phosphorylation assays of T33-Sic1ΔC constructs and recombinant substrates, substrate concentrations were kept in the range of 0.5-2 μM (in the linear [S] vs v0 range, several-fold below the estimated KM value), and the initial velocity conditions were defined as an initial substrate turnover ranging up to 10% of the total turnover. The latter was estimated by a long-term incubation with excess amounts of cyclin-Cdk1 and 32P-γ-ATP in the standard reaction mixture given below. About 1-10 nM of purified kinase complex was used, reaction aliquots were taken at two or more time points, and the reaction was stopped by SDS-PAGE sample buffer. The relative kcat/KM values for the substrates were calculated as the ratio of v0/[S], which was determined from at least two independent experiments. The basal composition of the assay mixture contained 50 mM Hepes, pH 7.4, 100 mM NaCl, 0.1% NP-40, 20 mM imidazole, 0.1 mg/ml 2HA peptide, 2% glycerol, 2 mM EGTA, 0.2 mg/ml BSA, […], and 500 μM ATP (with added 32P-γ-ATP (Perkin Elmer)).
# (§9) About 1-10 nM of purified kinase complex was used, reaction aliquots were taken at two or more […]
# Clb2hpm-Cdk1 = target: T6, Clb2hpm-Cdk1 (Saccharomyces cerevisiae, UniProt P00546)
# T6 construct: made in house; host or cells: S. cerevisiae strain DOM0964 (gal-CLB2hpm-TAP, sic1 deleted); Cks1 from bacteria
# T6 sequence (P00546 2-298 limits assumed): as the sequence (P00546 2-298 limits assumed) above
# Procedure: as §1, §2, §3, §4
# The […]
# as §5, §6, §7, §8, §9
# Clb5hpm-Cdk1 = target: T7, Clb5hpm-Cdk1 (Saccharomyces cerevisiae, UniProt P00546)
# T7 construct: made in house; host or cells: S. cerevisiae strain DOM0963 (gal-CLB5hpm-TAP, sic1 deleted); Cks1 from bacteria
# T7 sequence (P00546 2-298 limits assumed): as above
# Procedure: as §1, §2, §3, §4
# The […]
# as §5, §6, §7, §8, §9
Molecule,"kcat/KM, Cln2 (Cln2-Cdk1)","kcat/KM, Clb5 (Clb5-Cdk1)","kcat/KM, Clb3 (Clb3-Cdk1)","kcat/KM, Clb2 (Clb2-Cdk1)","kcat/KM, Clb3hpm (Clb3hpm-Cdk1)","kcat/KM, Clb2hpm (Clb2hpm-Cdk1)","kcat/KM, Clb5hpm (Clb5hpm-Cdk1)"
B1,0.428 relative units,1.724 relative units,9.051 relative units,9.072 relative units,1.144 relative units,6.351 relative units,0.428 relative units
B2,0.249 relative units,0.008 relative units,0.015 relative units,0.049 relative units,0.005 relative units,0.035 relative units,0.002 relative units
B3,0.031 relative units,0.031 relative units,0.139 relative units,0.571 relative units,0.033 relative units,0.244 relative units,0.015 relative units
B4,0.422 relative units,0.025 relative units,0.141 relative units,0.109 relative units,0.032 relative units,0.060 relative units,0.004 relative units
